Results taken from paper PMC5109244.

Biological target: T1, short mouse DNGR-1 ECD (extracellular domain of the short isoform of mouse DNGR-1) (mouse), Q8BRU4
T1 chain: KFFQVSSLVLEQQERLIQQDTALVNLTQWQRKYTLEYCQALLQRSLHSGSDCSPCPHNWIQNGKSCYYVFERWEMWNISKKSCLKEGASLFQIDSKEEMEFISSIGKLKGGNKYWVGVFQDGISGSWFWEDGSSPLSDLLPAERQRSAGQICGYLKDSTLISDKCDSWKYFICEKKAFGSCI
Test: non-reducing SDS-PAGE and Western blot; supernatants of 293F cells with FLAG-tagged ECD proteins, Laemmli buffer without reducing agent, HRP-conjugated anti-FLAG detection
Settings: remark: other sources report otherwise

stoichiometry N: 2
B1: short mouse DNGR-1 ECD (extracellular domain of the short isoform of mouse DNGR-1), Q8BRU4 57-238 (domain or fragment)
chain: T1 chain
modifications: here or on the partner: glycosylated (mobility augmented by PNGase F); glycosylated (mobility augmented by PNGase F)
